Reference: patent publication EP4692351A1, “ANTI-CD25 ANTIBODY AND ANTI-CD25 ANTIBODY-DRUG CONJUGATE” (priority 2023, dated 2024)
Changes are numbered by the printed parent chain.

Columns and labels:
mouse CD25 [1] = biological target: T1, mouse CD25 (mouse, UniProt P01590 22-268); assay: cell-based or functional assay
T1 construct: Expressed on transiently transfected CHO-K1 cells in the Cell-ELISA; Endogenous on CTLL-2 cells and mouse pan T cells in the functional assays; also called mCD25; pCMV3-mCD25 (expression vector)
T1 sequence: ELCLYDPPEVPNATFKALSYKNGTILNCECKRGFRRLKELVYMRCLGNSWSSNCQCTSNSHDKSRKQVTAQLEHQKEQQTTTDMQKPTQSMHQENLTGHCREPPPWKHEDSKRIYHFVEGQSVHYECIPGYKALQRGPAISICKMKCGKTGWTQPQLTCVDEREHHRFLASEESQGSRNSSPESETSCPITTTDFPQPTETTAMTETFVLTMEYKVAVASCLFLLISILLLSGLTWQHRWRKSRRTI

human CD25 [2] = biological target: T2, human CD25 (human, UniProt P01589 22-272); assay: cell-based or functional assay
T2 construct: Expressed on transiently transfected CHO-K1 cells in the Cell-ELISA; Endogenous on human T cells, PBMC, Karpas-299 and EoL-1 in the functional assays; also called hCD25; IL-2 receptor alpha chain
T2 sequence: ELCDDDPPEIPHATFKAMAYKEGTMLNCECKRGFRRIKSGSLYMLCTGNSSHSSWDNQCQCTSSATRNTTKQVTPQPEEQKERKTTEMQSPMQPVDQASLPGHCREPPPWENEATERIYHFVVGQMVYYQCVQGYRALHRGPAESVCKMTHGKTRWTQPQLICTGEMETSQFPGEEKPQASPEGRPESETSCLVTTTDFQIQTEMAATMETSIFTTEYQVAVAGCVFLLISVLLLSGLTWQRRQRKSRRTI

mouse CD25 [3] = biological target: T1, mouse CD25; assay: Cell-ELISA on transfected CHO-K1 cells, anti-human IgG-HRP, A450
cynomolgus monkey CD25 [4] = biological target: T3, cynomolgus monkey CD25 (cynomolgus monkey, UniProt Q5MNY4 22-272 (rhesus entry)); assay: Cell-ELISA on transfected CHO-K1 cells, anti-human IgG-HRP, A450; 20 to 0.001 µg/mL
T3 construct: Expressed on transiently transfected CHO-K1 cells; also called cCD25; pCI-cCD25 (expression vector)
T3 chain: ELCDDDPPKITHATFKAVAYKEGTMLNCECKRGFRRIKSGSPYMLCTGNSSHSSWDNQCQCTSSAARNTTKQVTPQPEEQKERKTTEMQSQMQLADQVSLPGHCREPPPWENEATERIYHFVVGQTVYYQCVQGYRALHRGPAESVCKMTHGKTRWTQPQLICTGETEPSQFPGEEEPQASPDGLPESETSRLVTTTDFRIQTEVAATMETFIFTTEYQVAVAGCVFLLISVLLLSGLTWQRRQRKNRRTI

[5] = biological target: T4, CD25 antigen used as analyte in the Biacore measurement (Homo sapiens (Human), UniProt P01589 22-213, limits assumed); assay: SPR, Biacore T200, antibody captured on anti-human IgG (Fc) on CM5, antigen as analyte, 1:1 binding model
T4 construct: also called the antigen
T4 sequence: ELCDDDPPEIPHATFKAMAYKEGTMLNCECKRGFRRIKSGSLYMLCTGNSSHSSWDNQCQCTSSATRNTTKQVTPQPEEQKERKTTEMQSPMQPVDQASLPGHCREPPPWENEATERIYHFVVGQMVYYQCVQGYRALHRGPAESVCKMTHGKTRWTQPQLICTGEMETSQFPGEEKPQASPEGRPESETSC

mouse CD25 [6] = biological target: T1, mouse CD25; assay: Cell-ELISA on transfected CHO-K1 cells, anti-rat IgG-HRP, A450
cynomolgus monkey CD25 [7] = biological target: T3, cynomolgus monkey CD25; assay: Cell-ELISA on transfected CHO-K1 cells, anti-rat IgG-HRP, A450; 0.02 to 10 µg/mL
cynomolgus monkey CD25 [8] = biological target: T3, cynomolgus monkey CD25; assay: Cell-ELISA on transfected CHO-K1 cells, anti-human IgG-HRP, A450; 80 to 0.001 µg/mL
human CD25 [9] = biological target: T2, human CD25; assay: Cell-ELISA on transfected CHO-K1 cells, anti-rat IgG-HRP, A450
cynomolgus monkey CD25 [10] = biological target: T3, cynomolgus monkey CD25; assay: as above
human CD25 [11] = biological target: T2, human CD25; assay: Cell-ELISA on transfected CHO-K1 cells, anti-human IgG-HRP, A450
cynomolgus monkey CD25 [12] = biological target: T3, cynomolgus monkey CD25; assay: as above

“Purified NA/LE Rat Anti-Mouse CD25 (PC61 antibody)” gave a cell survival rate of mouse pan T cells with Fab-ZAP rat (saporin), % of control antibody; 60 ng/mL (mouse CD25 [1]) of 59%, a cell survival rate of mouse pan T cells with Fab-ZAP rat (saporin), % of control antibody; 300 ng/mL (mouse CD25 [1]) of 39% and a cell survival rate of mouse pan T cells with Fab-ZAP rat (saporin), % of control antibody; 1500 ng/mL (mouse CD25 [1]) of 31%. For the same molecule, the cell survival rate of mouse pan T cells with Fab-ZAP rat (saporin), % of control antibody; 7500 ng/mL (mouse CD25 [1]) was 29%.

For basiliximab (antibody), the amount of pSTAT5 in human PBMC with IL-2 (AlphaLISA), % of hIgG1 control group (human CD25 [2]) was 0.01%, the amount of pSTAT5 in human PBMC with IL-2 (AlphaLISA), % of human IgG1 control group (human CD25 [2]) was 1.2% and the amount of pSTAT5 in human PBMC with IL-2 (AlphaLISA), % of rat IgG2a control group; antibody 20 µg/mL (human CD25 [2]) was 1%.

PC61_hIgG1LALA (antibody) gave an amount of pSTAT5 in mouse CTLL-2 cells with IL-2 (AlphaLISA), % of rat IgG2a control group; antibody solution 20 µg/mL (mouse CD25 [1]) of 48%.

For 7G7B6 (antibody), the amount of pSTAT5 in human PBMC with IL-2 (AlphaLISA), % of rat IgG2a control group; antibody 20 µg/mL (human CD25 [2]) was 103%.

B1: hMAb1A antibody (antibody, human IgG1, kappa, V domains shown)
VH: EVQLVESGGGLVQPGGSLRLSCAASGFTFNNYYMVWVRQAPGKGLEWVAYISTGGGTTYYRESVKGRFTISRDNSKSTLYLQMNSLRAEDTAVYYCTTSVYFSDGSSHYDGEWFAYWGQGTLVTVSS
VL: DIVMTQSPDSLAVSLGERATINCKASESVSTRMHWYQQKPGQPPKLLIYKASNLASGVPARFSGSGSGTDFTLTISSLQAEDVAVYYCQQSWNGWAFGQGTKVEIKR
notes: Humanized MAb1, human IgG1 / kappa; also called humanized antibody hMAb1A; hMAb1 (in places)
For B1, the binding result (mouse CD25 [3]) was “no binding (tested: 20 to 0.001 µg/mL)”, the binding result (cynomolgus monkey CD25 [4]) was “binds” and the Kd [5] was 2.9 nM.

B2: hMAb1B antibody (antibody, human IgG1, kappa, V domains shown)
VH: B1 VH with R61A, E62D
VL: EIVLTQSPGTLSLSPGERATLSCKASESVSTRMHWYQQKPGQAPRLLIYKASNLASGVPARFSGSGSGTDFTLTISRLEPEDFAVYFCQQSWNGWAFGQGTKVEIKR
notes: Humanized MAb1, human IgG1 / kappa; also called humanized antibody hMAb1B
B2 was tested, and the binding result (cynomolgus monkey CD25 [4]) was “binds” and the Kd [5] was 5.7 nM.

B3: MAb1 antibody (antibody, V domains shown)
VH: B1 VH with G16R, R19K, G42T, S75A, N84D, A88S, V93T
VL: DTVLTQSPALAVSPGERVTISCKASESVSTRMHWYQQKPGQQPKLLIYKASNLASGVPARFSGSGSGTDFTLTIDPVEADDTATYFCQQSWNGWAFGGGTKLELKR
notes: Rat monoclonal antibody from a hybridoma
B3: no binding (tested: up to 10 µg/mL) (mouse CD25 [6]); binds (cynomolgus monkey CD25 [7]).

B4: cMAb1_hIgG1LALA antibody (antibody, V domains shown)
VH: B1 VH with G16R, R19K, G42T, S75A, N84D, A88S, V93T
VL: B3 VL
notes: Chimeric: rat MAb1 variable regions, human IgG1 LALA heavy constant region, human kappa constant region; also called human IgG1LALA chimeric MAb1
B4: no binding (tested: 80 to 0.001 µg/mL) (mouse CD25 [3]); binds (cynomolgus monkey CD25 [8]).

B5: MAb2 antibody (antibody, V domains shown)
VH: QVKLLQSGAALEKPGASVKMSCKASGYTFTDYWVIWVKQSHGKSLEWIGEIYPNSGATNFNAKFKGKATLTVDKSTSTAYMELSRLTSEDSAIYYCTTYDFDYWGQGVMVTVSS
VL: DVVLTQTPPTLSATIGQSVSISCRSSQSLSHTNGNTYLYWLLQRPGQPPQLLIYFVSRLESGVPNRFSGSGSGTDFTLKISGVEAEDLGLYYCVQSTHVPNTFGAGTKLELKR
notes: Rat monoclonal anti-mouse CD25 antibody from a hybridoma
B5: no binding (tested: up to 10 µg/mL) (human CD25 [9]); no binding (tested: up to 10 µg/mL) (cynomolgus monkey CD25 [10]).

B6: cMAb2_hIgG1LALA antibody (antibody, V domains shown)
VH: B5 VH
VL: B5 VL
notes: 21-239 is used here; also called human IgG1LALA chimeric MAb2
B6: no binding (tested: 80 to 0.001 µg/mL) (human CD25 [11]); no binding (tested: 80 to 0.001 µg/mL) (cynomolgus monkey CD25 [12]).
